According to publication PMC3358306 (PLoS ONE, 2012):
Values joined by “and” are separate entries in the source; they are usually repeats but may differ in a detail not shown here. Identical values can stand only once.

What was measured:
[1] = molecular target: the molecule itself; experiment: SEC; analytical Superdex 200, sample diluted in buffer with 2 mM ATP; 50 mM Tris pH 8.0, 200 mM NaCl, 0.2% β-mercaptoethanol; 3 µg/µl protein
[2] = molecular target: the molecule itself; experiment: SEC; analytical Superdex 200, sample diluted in buffer with 2 mM adenosine; 50 mM Tris pH 8.0, 200 mM NaCl, 0.2% β-mercaptoethanol; 3 µg/µl protein
[3] = molecular target: the molecule itself; experiment: SEC; analytical Superdex 200, no ligand; 50 mM Tris pH 8.0, 200 mM NaCl, 0.2% β-mercaptoethanol; 3 µg/µl protein; size by calibration proteins
AUC = molecular target: the molecule itself; experiment: AUC

B1: human Rio1 kinase, residues 106 to 494, unphosphorylated (domain or fragment, UniProt Q9BRS2 106-494, looked up)
chain: STPADKVLRKFENKINLDKLNVTDSVINKVTEKSRQKEADMYRIKDKADRATVEQVLDPRTRMILFKMLTRGIITEINGCISTGKEANVYHASTANGESRAIKIYKTSILVFKDRDKYVSGEFRFRHGYCKGNPRKMVKTWAEKEMRNLIRLNTAEIPCPEPIMLRSHVLVMSFIGKDDMPAPLLKNVQLSESKARELYLQVIQYMRRMYQDARLVHADLSEFNMLYHGGGVYIIDVSQSVEHDHPHALEFLRKDCANVNDFFMRHSVAVMTVRELFEFVTDPSITHENMDAYLSKAMEIASQRTKEERSSQDHVDEEVFKRAYIPRTLNEVKNYERDMDIIMKLKEEDMAMNAQQDNILYQTVTGLKKDLSGVQKVPALLENQVEERT
notes: Rio1 kinase, human, residues 106 to 494; monomer MW 45.1 kDa as printed; also called hRio1; unphosphorylated hRio1; source: size exclusion; purified in the presence of 1 mM adenosine to prevent autophosphorylation
With B1 the “stoichiometry N” value [1] was 2 and the “stoichiometry N” value [2] was 4.

B2: autophosphorylated human Rio1 kinase, residues 106 to 494 (domain or fragment, UniProt Q9BRS2 106-494, looked up)
chain: STPADKVLRKFENKINLDKLNVTDSVINKVTEKSRQKEADMYRIKDKADRATVEQVLDPRTRMILFKMLTRGIITEINGCISTGKEANVYHASTANGESRAIKIYKTSILVFKDRDKYVSGEFRFRHGYCKGNPRKMVKTWAEKEMRNLIRLNTAEIPCPEPIMLRSHVLVMSFIGKDDMPAPLLKNVQLSESKARELYLQVIQYMRRMYQDARLVHADLSEFNMLYHGGGVYIIDVSQSVEHDHPHALEFLRKDCANVNDFFMRHSVAVMTVRELFEFVTDPSITHENMDAYLSKAMEIASQRTKEERSSQDHVDEEVFKRAYIPRTLNEVKNYERDMDIIMKLKEEDMAMNAQQDNILYQTVTGLKKDLSGVQKVPALLENQVEERT
modifications: autophosphorylated; site not given
notes: Rio1 kinase, human, residues 106 to 494, autophosphorylated; Same construct as m4, autophosphorylated in vitro; also called phosphorylated hRio1; autophosphorylated hRio1; source: purified hRio1 incubated at 25°C for 1 hr in 50 mM Tris pH 8.0, 200 mM NaCl, 2 mM MgCl2 and 0.2% β-mercaptoethanol
B2 was tested, and the “stoichiometry N” value [3] was 2.

B3: Archaeoglobus fulgidus Rio1 kinase Y200D mutant (enzyme, UniProt O28471 1-258, looked up)
chain: MKDLKKIESYLDKLRIKEKDGEERKIYAEVLDGRTLKTLYKLSAKGYITAMGGVISTGKEANVFYADGVFDGKPVAMAVKIYRIETSEFDKMDEYLYGDERFDMRRISPKEKVFIWTEKEFRNLERAKEAGVSVPQPYTYMKNVLLMEFIGEDELPAPTLVELGRELKELDVEGIFNDVVENVKRLYQEAELVHADLSEDNIMYIDKVYFIDMGQAVTLRHPMAESYLERDVRNIIRFFSKYGVKADFEEMLKEVKGE
notes: Rio1 kinase of Archaeoglobus fulgidus, full length, with Tyr 200 mutated to Asp; also called afRio1 Y200D; afRio1Y200D
In the case of B3, the “stoichiometry N” value (AUC) is reported as 4 and 3.
